Laboratory results reported in paper PMC9355956.

Tested on: CC(C)C[C@H](NC(=O)[C@H](CCC(N)=O)NC(=O)[C@H](CCCCN)NC(=O)[C@H](CCCNC(=N)N)NC(=O)[C@@H]1CCCN1C(=O)[C@H](C)NC(=O)[C@H](CCCCN)NC(=O)CNC(=O)CNC(=O)[C@@H](NC(=O)[C@H](CO)NC(=O)[C@H](CCCCN)NC(=O)[C@H](CCCNC(=N)N)NC(=O)[C@H](C)NC(=O)[C@@H](NC(=O)[C@H](CCC(N)=O)NC(=O)[C@H](CCCCN(C)C)NC(=O)[C@@H](NC(=O)[C@H](CCCNC(=N)N)NC(=O)[C@H](C)N)[C@@H](C)O)[C@@H](C)O)[C@@H](C)O)C(=O)N[C@@H](C)C(=O)O
Assay: purified protein, by the assay type
Settings: other: substrate, 20 nM LSD1
Method: The activity of hSMOX, hPAOX, and LSD1 enzymes was measured using the HyPerBlu chemiluminescent reagent for the direct detection of the hydrogen peroxide product. […] Hydrogen peroxide product formation was monitored 30 min after the addition of HyPerBlu on a PHERAstar microplate reader (BMG LABTECH, Cary, NC). All compounds were spotted into the assay plates using Echo acoustic dispensing technology (BeckmanCoulter, Indianapolis, IN). Unless otherwise stated, all reactions were carried out in 384-well assay format.
2 µL/well of 2x substrate was dispensed into the assay plate followed by 2 µL/well of 2x enzyme to initiate the reactions. […] The data were fit to the 4-parameter IC50 equation in GraphPad Prism.
Briefly, 2.5 µL/well of the twofold substrate solutions prepared in buffer was added to the assay wells followed by 2.5 µL/well of the 2x enzyme to initiate the reactions.
The initial velocity data were fit to the Michaelis-Menten equation in GraphPad Prism. Y=Vmax*X/(Km+X) where Vmax is the maximal velocity, X is the substrate concentration and Km is the Michaelis-Menten constant. The kcat value was determined by dividing Vmax value by the enzyme concentration.

## LSD1 (Homo sapiens)
  Km: 3.8 ± 0.35 µM
